Results published in PMC11821526.

How the values were obtained:
[1] = target: pep3 …[X]-CONH2, X = Ala; assay: fluorescence polarisation; FBXO31–SKP1 complex (0–5 µM) titrated to fluorescein-labelled peptide (2–10 nM); 25 mM HEPES, 150 mM NaCl, pH 7.5; room temperature, 30 min; one-site fit, n = 3 parallel experiments
[2] = target: pep3 …[X]-CONH2, X = Arg; assay: as above
[3] = target: pep3 …[X]-CONH2, X = Cys; assay: as above
[4] = target: pep3 …[X]-CONH2, X = Glu; assay: as above
[5] = target: pep3 …[X]-CONH2, X = Gly; assay: as above
[6] = target: pep3 …[X]-CONH2, X = His; assay: as above
[7] = target: pep3 …[X]-CONH2, X = Ile; assay: as above
[8] = target: pep3 …[X]-CONH2, X = Leu; assay: as above
[9] = target: pep3 …[X]-CONH2, X = Lys; assay: as above
[10] = target: pep3 …[X]-CONH2, X = Met; assay: as above
[11] = target: pep3 …[X]-CONH2, X = Pro; assay: as above
[12] = target: pep3 …[X]-CONH2, X = Ser; assay: as above
[13] = target: pep3 …[X]-CONH2, X = Thr; assay: as above
[14] = target: pep3 …[X]-CONH2, X = Trp; assay: as above
[15] = target: pep3 …[X]-CONH2, X = Tyr; assay: as above
[16] = target: pep3 …[X]-CONH2, X = Val; assay: as above
[17] = target: pep3 with terminal Asn amide (…-CONH2); assay: fluorescence polarisation; FBXO31–SKP1 complex (0–5 µM) titrated against fluorescein-labelled peptides (2–10 nM); 25 mM HEPES, 150 mM NaCl, pH 7.5, room temperature, 30 min; one-site fit; constants of the highest affinity probes only approximate
[18] = target: pep3 with terminal Asp amide (…-CONH2); assay: as above
[19] = target: pep3 with terminal Gln amide (…-CONH2); assay: as above
[20] = target: pep3 with terminal Phe amide (…-CONH2); assay: as above

Substance: FBXO31–SKP1 complex (StrepII-FBXO31.1(∆1–65) with SKP1(A2P,∆38–43,∆71–82)) (from UniProt Q5XUX0 66-539; P63208 1-163)
- Kd [1]: 54.4 nM
- Kd [2]: 71 nM
- Kd [3]: 19.9 nM
- Kd [4]: 103 nM
- Kd [5]: 137 nM
- Kd [6]: 13.2 nM
- Kd [7]: 32.1 nM
- Kd [8]: 41.4 nM
- Kd [9]: 93.8 nM
- Kd [10]: 21 nM
- Kd [11]: 58.2 nM
- Kd [12]: 49.6 nM
- Kd [13]: 42 nM
- Kd [14]: 38.2 nM
- Kd [15]: 25.9 nM
- Kd [16]: 43.7 nM

Substance: recombinant FBXO31–SKP1 complex (wild type) (from UniProt Q5XUX0 66-539; P63208 1-163)
- Kd [17]: 24 nM
- Kd [18]: 304 nM
- Kd [19]: 55 nM
- Kd [20]: 6 nM
